Marks after values point to notes of the source that are not given here.
Assays:
hERG = hERG (Homo sapiens, UniProt Q12809); test: hERG ion channel inhibition, IonWorks Quattro patch clamp; format: cell-based; conditions: human; all concentrations tested (0.005 μM to 10 μM); 600 seconds incubation
Procedure: (§1) The purpose of this study was to evaluate the potential of Conjugate 57 to prolong the QT interval via modulation of the ion channel, human Ether-á-go-go Related Gene (hERG). The potential inhibition of the ion channel activity by Conjugate 57 was tested using an IonWorks Quattro electrophysiological platform, which is an automated high-throughput patch clamp system. Conjugate 57 was tested at eight different concentrations, starting at a high concentration of 10 μM and a low concentration of 0.005 μM with a minimum of five replicates for each concentration. hERG currents were evoked by a three pulse protocol where voltage was first stepped to +40 mV for two seconds from a holding potential of −80 mV to inactivate hERG channels. The voltage is then stepped back to −50 mV for two seconds to evoke a tail current prior to returning to the holding potential for 1 second. The voltage protocol was applied (Pre), compounds added, incubated for 600 seconds, and the voltage protocol was applied a final time (Post) on the IonWorks Quattro.

[1] = target: human Ether-á-go-go-Related Gene (hERG) ion channel (Homo sapiens, UniProt Q12809); test: as above; format: cell-based; conditions: IonWorks Quattro; up to 10 μM
Procedure: as §1

HCC-33 = test: Inhibition of proliferation, CellTiter-Glo, HCC-33; format: cell-based, human
Procedure: The purpose of this study was to determine the receptor-dependent inhibition of proliferation in vitro by the somatostatin targeting conjugate Conjugate 57 and determine the sensitivity to DM1 in the human SSTR2 expressing cancer cell lines: NCI-H69, NCI-H82, NCI-H727 and HCC-33. Cells were incubated with Conjugate 57 for 6 hours, in the presence or absence of an excess of octreotide, a somatostatin analogue. A three-fold serial dilution of Conjugate 57 was used for a total of ten concentration points. After treatment, cells were washed, incubated for an additional period of time, either 72 or 96 hours and proliferation was measured using the CellTiter-Glo® Luminescent Cell Viability Assay. The IC50 of Conjugate 57 was used to determine the inhibiting activity in proliferation assays. To determine DM1 sensitivity a similar method to the Conjugate 57 assay was employed with the additional incubation time points of 30 minutes, 1, 2, and 4 hours and the exclusion of the pre-treatment with octreotide. DM1 effect from the most to least sensitive cell line was determined to be: NCI-H69>HCC-33>NCI-H82>NCI-H727 (Table 5B). […] The addition of excess octreotide (100 μM) competes with Conjugate 57 for binding to the SSTR2 receptor. […] In the NCI-H69 experiments, pre-incubation with an excess of octreotide modestly diminished the activity of Conjugate 57 by 1.6 and 2.4 fold, depending on the assay conditions. In the HCC-33 cell line, activity of Conjugate 57 was 3.2 (±1.4) times higher when dosed alone, compared to when the cells were pre-incubated with octreotide. The small but measureable changes in Conjugate 57 activity in the presence of excess octreotide seen in the NCI-H69 and HCC-33 cell lines supports the receptor dependence of the Conjugate 57 antiproliferative effect seen in vitro. In summary, although all the cell lines tested in these experiments express the SSTR2 protein, they have different levels of sensitivity to the Conjugate 57 conjugate of which the DM1 sensitivity may be a contributing factor.

[2] = Conversion of impurities back into Conjugate 57 in acetate buffer; format: physicochemical
Procedure: Two impurities present in Conjugate 57 with RRT at 1.69 and 1.70, referred to herein as Impurity A and B respectively, were identified as Conjugate 57 adducts. […] The rate of conversion of these two compounds back into Conjugate 57 is dependent on temperature. Data are provided in Table 11A and Table 11B showing this conversion at room temperature and 40° C.

[3] = Drug substance stability study; format: physicochemical
Procedure: Stability studies were carried out for Conjugate 57. The tests included in the stability protocols ensure that changes relating to appearance, strength, purity, and moisture of the drug substance are monitored through-out the shelf life of the drug substance. Endotoxins are also monitored by annual inclusion of tests for these attributes in the stability program.
In another stability study, the following conditions were tested: 5° C.±3° C. under nitrogen and −20° C.±5° C. under nitrogen. Nitrogen was selected to prevent oxidation and assure control atmosphere during storage.

SSTR3 = SSTR3 (Homo sapiens, UniProt P32745); test: Affinity profile (half-maximal inhibitory concentration), SSTR3; format: binding
Text: DOTATE, also known as DOTA-TATE or DOTA-octreotate, comprises an amide of the acid DOTA, which connects a radionuclide and (Tyr3)-octreotate, a derivative of octreotide. DOTATOC, also known as edotreotide, SMT487, or (DOTA^0-Phe^1-Tyr^3)octreotide, is also an octreotide derivative which can be bound to radionuclides for diagnosis and treatment.

[4] = Lot 1, 5° C. ± 3° C. study, Initial
[5] = Lot 1, −20° C. ± 5° C. study, Initial
[6] = Lot 1 stored at 5° C. ± 3° C., 3 Month
[7] = Lot 1 stored at −20° C. ± 5° C., 3 Month
[8] = Lot 2, 5° C. ± 3° C./Ambient RH under nitrogen, Initial
[9] = Lot 2, 25° C. ± 2° C., 60% RH ± 5% RH study, Initial
[10] = Lot 2 stored at 5° C. ± 3° C./Ambient RH under nitrogen, 1 Month
[11] = Lot 2 stored at 5° C. ± 3° C./Ambient RH under nitrogen, 1 Month, preliminary identification
[12] = Lot 2 stored at 25° C. ± 2° C., 60% RH ± 5% RH, 3 Month

Sequence of SSTR3 (P32745 whole entry): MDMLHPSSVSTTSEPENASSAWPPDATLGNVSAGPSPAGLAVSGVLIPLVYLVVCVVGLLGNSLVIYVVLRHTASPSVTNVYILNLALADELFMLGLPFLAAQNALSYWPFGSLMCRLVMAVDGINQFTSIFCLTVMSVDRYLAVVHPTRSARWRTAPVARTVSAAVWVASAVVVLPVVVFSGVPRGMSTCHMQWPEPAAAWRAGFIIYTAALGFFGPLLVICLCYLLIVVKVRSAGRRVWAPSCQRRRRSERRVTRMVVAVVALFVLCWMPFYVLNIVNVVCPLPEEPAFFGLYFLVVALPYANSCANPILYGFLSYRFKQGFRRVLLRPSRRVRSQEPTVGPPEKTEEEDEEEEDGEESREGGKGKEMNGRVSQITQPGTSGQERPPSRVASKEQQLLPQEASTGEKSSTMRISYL
Sequence of human Ether-á-go-go-Related Gene (hERG) ion channel (Q12809 whole entry): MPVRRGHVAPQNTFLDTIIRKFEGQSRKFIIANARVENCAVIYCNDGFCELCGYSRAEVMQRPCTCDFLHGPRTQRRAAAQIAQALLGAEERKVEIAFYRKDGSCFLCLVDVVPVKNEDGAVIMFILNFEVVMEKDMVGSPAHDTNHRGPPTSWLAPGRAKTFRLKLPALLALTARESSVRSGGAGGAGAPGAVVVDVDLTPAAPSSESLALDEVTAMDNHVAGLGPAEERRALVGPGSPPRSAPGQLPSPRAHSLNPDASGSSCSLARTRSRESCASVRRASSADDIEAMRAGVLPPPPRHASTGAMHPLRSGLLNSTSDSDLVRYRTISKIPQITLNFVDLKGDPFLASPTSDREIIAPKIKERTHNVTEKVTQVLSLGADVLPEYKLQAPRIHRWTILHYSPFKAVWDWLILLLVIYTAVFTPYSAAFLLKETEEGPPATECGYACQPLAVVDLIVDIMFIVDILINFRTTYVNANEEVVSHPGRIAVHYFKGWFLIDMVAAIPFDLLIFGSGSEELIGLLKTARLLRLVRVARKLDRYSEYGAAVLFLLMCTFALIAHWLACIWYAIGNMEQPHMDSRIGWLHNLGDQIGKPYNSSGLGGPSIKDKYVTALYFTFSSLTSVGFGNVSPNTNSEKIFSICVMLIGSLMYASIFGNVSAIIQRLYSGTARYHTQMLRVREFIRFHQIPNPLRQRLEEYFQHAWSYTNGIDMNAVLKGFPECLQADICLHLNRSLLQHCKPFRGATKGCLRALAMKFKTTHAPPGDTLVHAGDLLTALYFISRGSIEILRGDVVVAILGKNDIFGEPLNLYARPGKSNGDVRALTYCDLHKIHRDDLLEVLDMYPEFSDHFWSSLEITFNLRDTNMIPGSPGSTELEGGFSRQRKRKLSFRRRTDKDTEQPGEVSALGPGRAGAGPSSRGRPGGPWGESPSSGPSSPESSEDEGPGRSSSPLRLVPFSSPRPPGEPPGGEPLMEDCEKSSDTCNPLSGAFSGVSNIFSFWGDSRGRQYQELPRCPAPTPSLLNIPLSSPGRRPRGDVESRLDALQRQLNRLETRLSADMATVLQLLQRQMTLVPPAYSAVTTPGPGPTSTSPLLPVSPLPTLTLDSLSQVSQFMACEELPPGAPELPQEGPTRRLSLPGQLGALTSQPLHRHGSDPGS
Sequence of hERG (Q12809 whole entry): as above

COc1cc2cc(c1Cl)N(C)C(=O)C[C@H](OC(=O)[C@H](C)N(C)C(=O)CCSSC[C@H](NC(=O)[C@@H]1CSSC[C@H](NC(=O)[C@H](N)Cc3ccccc3)C(=O)N[C@@H](Cc3ccc(O)cc3)C(=O)N[C@H](Cc3c[nH]c4ccccc34)C(=O)N[C@@H](CCCCN)C(=O)N[C@@H]([C@@H](C)O)C(=O)N1)C(N)=O)[C@]1(C)O[C@H]1[C@H](C)[C@@H]1C[C@@](O)(NC(=O)O1)[C@H](OC)/C=C/C=C(\C)C2 [Conjugate 57]
inhibition at 600 seconds (hERG): < 20%
hERG ion channel inhibition (in words) [1]: did not inhibit
activity dosed alone compared to pre-incubation with octreotide (HCC-33): 3.2 (±1.4) times higher
IC50 (HCC-33; 5,000 cells/well, assay duration 72 h (repeat experiments), read-out: Inhibition of Proliferation IC50 Without Octreotide): 0.23 µM
Total (sum of Conjugate 57 and impurities A and B) ([2]; 40° C., 0 hr): 98.6%
content during conversion of impurities ([2]; 40° C., 0 hr): 94.6%
Total (sum of Conjugate 57 and impurities A and B) ([2]; 40° C., 1.4 hr): 98.7%
content during conversion of impurities ([2]; 40° C., 1.4 hr): 97.9%
Total (sum of Conjugate 57 and impurities A and B) ([2]; 40° C., 8.4 hr): 98.8%
content during conversion of impurities ([2]; 40° C., 8.4 hr): 98.5%
Total (sum of Conjugate 57 and impurities A and B) ([2]; room temperature, 0 hr): 98.6%
content during conversion of impurities ([2]; room temperature, 0 hr): 94.6%
Total (sum of Conjugate 57 and impurities A and B) ([2]; room temperature, 9.0 hr): 98.7%
content during conversion of impurities ([2]; room temperature, 9.0 hr): 97.8%
Total (sum of Conjugate 57 and impurities A and B) ([2]; room temperature, 11.6 hr): 98.8%
content during conversion of impurities ([2]; room temperature, 11.6 hr): 98.1%
Total (sum of Conjugate 57 and impurities A and B) ([2]; room temperature, 14.8 hr): 98.8%
content during conversion of impurities ([2]; room temperature, 14.8 hr): 98.3%
Total (sum of Conjugate 57 and impurities A and B) ([2]; room temperature, 16.7 hr): 98.8%
content during conversion of impurities ([2]; room temperature, 16.7 hr): 98.3%
degradation on storage ([3]; 5° C.±3° and 25° C./60% Relative Humidity (RH), 3 months): Significant degradation
Appearance [3, 4]: White powder
Assay [3, 4]: 88.2%
Moisture Content by KF [3, 4]: 4.3%
Purity (RP-HPLC) [3, 4]: 98.0%
Total Impurities [3, 4]: 1.9%
Appearance [3, 5]: White powder
Assay [3, 5]: 88.2%
Moisture Content by KF [3, 5]: 4.3%
Purity (RP-HPLC) [3, 5]: 98.0%
Total Impurities [3, 5]: 1.9%
Appearance [3, 6]: White powder
Assay [3, 6]: 88.2%
Purity (RP-HPLC) [3, 6]: 97.4%
Total Impurities [3, 6]: 2.5%
Appearance [3, 7]: White powder
Assay [3, 7]: 90.9%
Purity (RP-HPLC) [3, 7]: 98.0%
Total Impurities [3, 7]: 1.9%
Appearance [3, 8]: White powder
Assay [3, 8]: 97.0%
Moisture Content by KF [3, 8]: 2.1%
Purity (RP-HPLC) [3, 8]: 98.0%
Total Impurities [3, 8]: 2.0%
Starting Materials: BT-976 content ([3]; Lot 2, 5° C. ± 3° C./Ambient RH under nitrogen, Initial, preliminary identification by marker retention time): 0.05%^a
Appearance [3, 9]: White powder
Assay [3, 9]: 88.2%
Moisture Content by KF [3, 9]: 4.3%
Purity (RP-HPLC) [3, 9]: 98.0%
Total Impurities [3, 9]: 1.9%
Appearance [3, 10]: White powder
Assay [3, 10]: 94.6%
Moisture Content by KF [3, 10]: 1.9%
Purity (RP-HPLC) [3, 10]: 96.6%
Total Impurities [3, 10]: 3.4%
Starting Materials: BT-976 content [3, 11]: 0.05% a
Starting Materials: DM1 content [3, 11]: 0.09% a
Appearance [3, 12]: White powder
Assay [3, 12]: 78.7%
Purity (RP-HPLC) [3, 12]: 90.8%
Total Impurities [3, 12]: 9.2%
change in purity on storage ([3]; after 3 months at −20° C.±5° C.): No significant change in purity
time stable ([3]; at −20° C.): at least 3 months
IC50 (SSTR3): 0.058 µM
